The values that follow come from patent US20220220166, “PPR PROTEIN CAUSING LESS AGGREGATION AND USE OF THE SAME” (EditForce, Inc., published 2022).

Holding throughout (assay): vs PPRcag_1; streptavidin plate luciferase assay, RT
Holding throughout (conditions): tags: N-terminal luciferase (Nluc), C-terminal 6xHis; label: 5'-biotin

The target of data set [1] is T1, PPRcag_5 (6N9K), Nluc-PPR-His6 (synthetic construct).
T1 chain: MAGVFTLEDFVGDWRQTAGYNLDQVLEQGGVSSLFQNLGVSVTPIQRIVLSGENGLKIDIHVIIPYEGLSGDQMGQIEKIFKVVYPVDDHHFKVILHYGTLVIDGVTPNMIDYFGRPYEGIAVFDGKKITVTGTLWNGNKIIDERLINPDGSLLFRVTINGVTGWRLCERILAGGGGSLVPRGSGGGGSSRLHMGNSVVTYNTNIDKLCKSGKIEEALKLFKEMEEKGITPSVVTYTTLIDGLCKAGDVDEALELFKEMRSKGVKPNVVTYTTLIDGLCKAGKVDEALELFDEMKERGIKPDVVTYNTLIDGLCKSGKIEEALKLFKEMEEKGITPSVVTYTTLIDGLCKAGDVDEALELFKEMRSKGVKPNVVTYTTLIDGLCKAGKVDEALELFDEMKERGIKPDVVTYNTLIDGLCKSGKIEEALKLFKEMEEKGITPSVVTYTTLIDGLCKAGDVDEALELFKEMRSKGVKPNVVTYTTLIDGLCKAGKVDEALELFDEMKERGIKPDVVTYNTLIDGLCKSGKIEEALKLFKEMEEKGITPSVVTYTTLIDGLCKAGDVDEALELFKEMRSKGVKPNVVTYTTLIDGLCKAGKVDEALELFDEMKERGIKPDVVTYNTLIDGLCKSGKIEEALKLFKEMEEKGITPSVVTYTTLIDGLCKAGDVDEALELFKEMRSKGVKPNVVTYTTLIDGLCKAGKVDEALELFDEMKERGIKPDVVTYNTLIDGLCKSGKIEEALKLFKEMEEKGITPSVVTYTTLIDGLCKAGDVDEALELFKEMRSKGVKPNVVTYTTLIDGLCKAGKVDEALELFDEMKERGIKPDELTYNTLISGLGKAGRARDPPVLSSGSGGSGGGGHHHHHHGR
How it is done:
(§1) The binding experiment for PPR protein and RNA was performed by an experimental method for binding of PPR protein and biotinylated RNA on a streptavidin plate.
(§2) There were synthesized RNA probes of 30-base RNAs containing the target CAGx6 sequence, untargeted CGGx6, CUGx6, and CCGx6, and the Dlb ([…]) sequence (positions 8 to 25 of SEQ ID NO: 42) modified with biotin at the 5′-end (in that order, SEQ ID NOS: 38 to 42, respectively) (Grainer). To a streptavidin-coated plate (Thermo Fisher, Cat. No. 15502), the 5′-end biotinylated RNA probes were added, reaction was allowed at room temperature for 30 minutes, and the plate was washed with a probe washing buffer (20 mM Tris-HCl, pH 7.6, 150 mM NaCl, 5 mM MgCl₂, 0.5% NP-40, 1 mM DTT, 0.1% BSA). For background measurement, wells to which biotinylated RNA was not added, but the lysis buffer was added were also prepared. Then, a blocking buffer (20 mM Tris-HCl, pH 7.6, 150 mM NaCl, 5 mM MgCl₂, 0.5% NP-40, 1 mM […], 1% BSA) was added, and the plate surface was blocked at room temperature for 30 minutes. Then, 100 μL of the E. coli lysate containing luciferase-fused PPR protein having a luminescence of 1.5×10⁸ LU/μL was added, and the binding reaction was allowed at room temperature for 30 minutes. Then, the plate was washed 5 times with 200 μL of a washing buffer (20 mM Tris-HCl, pH 7.6, 150 mM NaCl, 5 mM MgCl₂, 0.5% NP-40, 1 mM DTT). To each well, 40 μL of luciferase substrate (Promega, E151A) diluted 2,500-fold with the washing buffer was added, reaction was allowed for 5 minutes, and then luminescence was measured with a plate reader (PerkinElmer, Cat. No. 5103-35).

The target in data set [2] is T2, PPRcag_4 (6N9E), Nluc-PPR-His6 (synthetic construct).
T2 chain: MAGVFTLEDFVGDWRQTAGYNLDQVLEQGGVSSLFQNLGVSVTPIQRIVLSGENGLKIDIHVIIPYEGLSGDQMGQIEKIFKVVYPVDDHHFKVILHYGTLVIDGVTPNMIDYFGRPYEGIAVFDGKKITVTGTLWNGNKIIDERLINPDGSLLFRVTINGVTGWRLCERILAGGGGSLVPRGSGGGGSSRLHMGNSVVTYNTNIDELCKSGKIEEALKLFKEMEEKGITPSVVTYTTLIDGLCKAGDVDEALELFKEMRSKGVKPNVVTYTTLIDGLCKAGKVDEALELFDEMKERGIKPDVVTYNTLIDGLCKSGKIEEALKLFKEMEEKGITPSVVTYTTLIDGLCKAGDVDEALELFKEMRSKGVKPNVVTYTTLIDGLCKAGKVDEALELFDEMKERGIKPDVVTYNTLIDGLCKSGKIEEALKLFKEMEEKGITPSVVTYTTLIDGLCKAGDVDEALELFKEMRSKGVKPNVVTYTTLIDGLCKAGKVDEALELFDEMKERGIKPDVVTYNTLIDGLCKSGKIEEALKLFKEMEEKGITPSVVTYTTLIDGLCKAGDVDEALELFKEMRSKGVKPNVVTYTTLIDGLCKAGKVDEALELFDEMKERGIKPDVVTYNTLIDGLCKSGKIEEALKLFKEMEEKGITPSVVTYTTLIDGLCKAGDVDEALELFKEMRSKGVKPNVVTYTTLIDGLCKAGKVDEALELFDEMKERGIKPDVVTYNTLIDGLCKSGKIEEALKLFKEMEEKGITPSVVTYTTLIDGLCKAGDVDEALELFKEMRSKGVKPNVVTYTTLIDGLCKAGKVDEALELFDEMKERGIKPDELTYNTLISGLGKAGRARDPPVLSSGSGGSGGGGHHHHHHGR
The method, then:
as §1, §2

Data set [3] concerns the target T3, PPRcag_6 (6D9G), Nluc-PPR-His6 (synthetic construct).
T3 chain: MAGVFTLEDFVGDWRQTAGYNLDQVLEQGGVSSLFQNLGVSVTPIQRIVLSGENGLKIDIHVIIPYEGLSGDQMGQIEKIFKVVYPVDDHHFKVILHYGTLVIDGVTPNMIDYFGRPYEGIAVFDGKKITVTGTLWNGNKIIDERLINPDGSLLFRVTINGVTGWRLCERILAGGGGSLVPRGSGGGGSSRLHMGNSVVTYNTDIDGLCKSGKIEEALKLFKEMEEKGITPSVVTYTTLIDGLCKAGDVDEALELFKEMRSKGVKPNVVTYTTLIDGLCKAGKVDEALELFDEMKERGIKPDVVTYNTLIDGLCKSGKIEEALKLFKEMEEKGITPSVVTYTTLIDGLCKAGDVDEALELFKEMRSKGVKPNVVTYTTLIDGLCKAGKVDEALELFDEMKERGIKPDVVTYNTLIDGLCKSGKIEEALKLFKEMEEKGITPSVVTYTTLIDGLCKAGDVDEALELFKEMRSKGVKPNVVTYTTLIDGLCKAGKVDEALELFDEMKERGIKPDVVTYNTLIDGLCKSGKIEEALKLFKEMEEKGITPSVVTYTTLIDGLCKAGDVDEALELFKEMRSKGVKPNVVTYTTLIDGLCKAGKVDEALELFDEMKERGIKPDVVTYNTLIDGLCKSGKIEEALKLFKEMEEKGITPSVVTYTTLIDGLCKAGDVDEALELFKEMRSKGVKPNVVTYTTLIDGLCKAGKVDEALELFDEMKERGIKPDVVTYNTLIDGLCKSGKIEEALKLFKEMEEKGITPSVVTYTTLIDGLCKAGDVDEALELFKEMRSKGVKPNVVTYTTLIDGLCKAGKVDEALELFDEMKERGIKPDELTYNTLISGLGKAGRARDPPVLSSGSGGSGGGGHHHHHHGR
How it is done:
as §1, §2

The target of data set [4] is T4, PPRcag_3 (6N9Q), Nluc-PPR-His6 (synthetic construct).
T4 chain: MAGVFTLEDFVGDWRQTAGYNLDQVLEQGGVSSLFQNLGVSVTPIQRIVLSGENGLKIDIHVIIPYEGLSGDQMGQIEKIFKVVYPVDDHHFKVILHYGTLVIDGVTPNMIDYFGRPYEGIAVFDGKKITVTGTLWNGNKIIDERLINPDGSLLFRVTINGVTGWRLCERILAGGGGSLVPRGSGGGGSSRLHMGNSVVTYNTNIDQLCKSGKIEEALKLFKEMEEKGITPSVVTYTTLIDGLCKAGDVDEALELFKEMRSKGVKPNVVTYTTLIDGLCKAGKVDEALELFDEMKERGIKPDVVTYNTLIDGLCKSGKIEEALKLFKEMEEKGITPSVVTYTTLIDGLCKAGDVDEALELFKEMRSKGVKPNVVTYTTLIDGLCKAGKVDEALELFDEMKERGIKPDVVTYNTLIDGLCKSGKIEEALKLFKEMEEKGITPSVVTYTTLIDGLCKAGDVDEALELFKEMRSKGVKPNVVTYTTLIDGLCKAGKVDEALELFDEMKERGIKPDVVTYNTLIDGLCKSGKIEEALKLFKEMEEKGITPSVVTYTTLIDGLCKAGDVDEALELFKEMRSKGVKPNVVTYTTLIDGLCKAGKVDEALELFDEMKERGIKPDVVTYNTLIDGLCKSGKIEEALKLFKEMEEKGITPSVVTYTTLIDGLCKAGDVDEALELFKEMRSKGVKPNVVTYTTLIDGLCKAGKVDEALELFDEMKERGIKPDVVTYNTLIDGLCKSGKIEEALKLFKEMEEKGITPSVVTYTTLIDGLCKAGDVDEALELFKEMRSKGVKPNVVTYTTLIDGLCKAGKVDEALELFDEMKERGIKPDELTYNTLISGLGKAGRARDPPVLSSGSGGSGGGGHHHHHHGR
How it is done:
as §1, §2

B1: CAGx6 RNA probe (ssRNA)
RNA: GACAUGCCAGCAGCAGCAGCAGCAGGACUG
With B1, the binding signal in data set [1] was around 120%; in data set [2], around 60%; in data set [3], around 130%; in data set [4], around 80%.
